This sample holds only a part of the variants without activity.
B1: TPR 5TU (parent)
chain: GGAUCUUCUCGAUCUAACAAAAAAGACAAAUCUGCCACAAAGCUUGAGAGCAUCUUCGGAUGCAGAGGCGGCAGCCUUCGGUGGCGCGAUAGCGCCAACGUUCUCAACUAUGACACGCAAAACGCGUGCUCCGUUGAAUGGAGUUUAUCAUG

Variants of: B1
Assay: polymerase ribozyme fitness, log enrichment relative to wild type (log ratio); higher = more active; in vitro selection for triplet polymerase activity
In short: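 Mutant libraries for each subunit of a heterodimeric triplet polymerase ribozyme were made by PCR and then transcribed. Each library underwent one round of in vitro selection in triplicate: annealing with a biotinylated primer, the partner subunit and triplets, frozen incubation at −7 °C, gel excision of extended constructs, streptavidin-bead capture and RT-PCR. Input and output libraries were Illumina-sequenced, and only genotypes with ≥10 input reads and ≥1 read per output were kept. Fitness is the logarithm, base 2, of genotype enrichment over wild-type enrichment, computed from inverse-variance-weighted replicate averages.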

Variant | polymerase ribozyme fitness (log ratio)
A21G C36A C57U A64G G94U G126C A138G | ≤ -4.2
A21G U82A C96A U101G A121U | 0.493
A21U C57A C76U C116A | 0.702
A21G A41C G46A G65U | ≤ -4.2
A21C C93A U104A G141C U144G G152A | ≤ -4.2
A22C A37U U61G C85G A91U U146A | ≤ -4.2
A22C A37C | -0.165
A21G A60G U78C A89U G92A G124U A137G G143U | ≤ -4.2
A21G U33G A37U C85U C95U G141C | ≤ -4.2
A21G G80A C99G A119U | -0.387
A21C C93U | -1.24
A21C C93G | -3
A21U C32G G50A G83A G136A | ≤ -4.2
A21C C35U C75U G92C C96A C108U C131U A142C | ≤ -4.2
A21G U31G C38U A66G C93A G124U U144A | ≤ -4.2
A22C A41C A49C U53A G67U G117A C131A | ≤ -4.2
A21G C99U | 0.465
A21U C27U C35A C57A G59C G74C G86U A89G U101G | ≤ -4.2
A22C A40U C57U G58A G65A C75A G133A A138U A142C | ≤ -4.2
A21U A73U C116A U134A G141C A150G | ≤ -4.2
A21U A30G C57U A91U U104A G126A | ≤ -4.2
A21U G83C | -1.57
A21U C36A G86A A98C | -4.1
A21G C27U A40U C69U C95G A98G C99U A115U A142U | ≤ -4.2

Variant | polymerase ribozyme fitness (log ratio)
A22C A23G G62A A91G A98U C114A U146A | ≤ -4.2
A21C U33G C87U U145A A150U | ≤ -4.2
A21G G143A | -0.569
A21U C72U U77G U82G G100C U135G | ≤ -4.2
A21U C105G A113G C116U | -4.07
A21U C72U A122U | -0.472
A21G C75U A98G C99G C114U | ≤ -4.2
A21U U78C G86C U148A | ≤ -4.2
A21G A39U G83A U90G G92C C108G | ≤ -4.2
A21C U148A | -3.11
A21U A41C G86A G100U A110C | ≤ -4.2
A22C A23C C36G C79A C125A G140U | -3.55
A21C U55A C96U | -0.915
A21C G42U C69G C85U A98U A106G A120U | ≤ -4.2
A22C A28G C36A U55A C87A C118G | ≤ -4.2
A21U C36A A64C G86C | ≤ -4.2
A21U G59C G126U | 0.721
A21C C85U | -0.369
A21G U31A C51G G71U A89C A106G A110U A138G | ≤ -4.2
A21U C32G C85A | ≤ -4.2
A21U A39C C57U A97G | -2.62
A21U G48A U82G C95G | ≤ -4.2
A21G C57A | 1.14
A21C C116U | 0.668

Variant | polymerase ribozyme fitness (log ratio)
A22C A23G C54U | ≤ -4.2
A21C A73U A107C A121U C149U | ≤ -4.2
A22C A26U U33G G34A U55A A73U U77G G86A G143A | ≤ -4.2
A21C A142C | 0.655
A21U A113U A137G U144A | -3.99
A21C U53A G58A C95U U101G C116A | -0.162
A22C A39C U53A G68A A91U U146A | ≤ -4.2
A21U C57A A107C A122G C123U U135C U145A | ≤ -4.2
A21G G92C | 0.365
A21U C51U C93G C105U A120G | -3.58
A21C G86A | -0.32
A21U A40G A60G C96G U146G | -3.99
A21C C95U C129A | -2.89
A21U A52G C76A G81C C87G C114U A121C U146A | ≤ -4.2
A21G A30G A89C | ≤ -4.2
A21U U61G G80A U101A | -2.86
A21C C85A U127A | ≤ -4.2
A21C A137G | -0.909
A21G C76G A97U | ≤ -4.2
A21G A49U G50A | -0.423
A21G G25A U56A C93U A119G A120C U146C | -3.11
A21G A40U | 0.957
A21G A52C G83U G84A U90C C95G G100A C103G A107U U139G | ≤ -4.2
A21U C96U A113U | -2.6

Variant | polymerase ribozyme fitness (log ratio)
A21C U44A C75A C96A | -3.98
A22C A52C G81U | -1.38
A21U G68C C69G C116U | ≤ -4.2
A21G C87U G140U | -3.6
A21C G25A | -2.85
A21G C27A G46A A73G C87A | ≤ -4.2
A22C A24G C51G A52C U56A A121C | ≤ -4.2
A21C G88U A142U | ≤ -4.2
A21G A106C | -0.348
A21U C99U C116U C125U | -1.64
A21U C54A C96U | -2.01
A21C U55A | -0.0725
A21G A40C G86U A119G A150C | ≤ -4.2
A21C C57G G81A A115C | -1.84
A21C G88A U104G A107U | ≤ -4.2
A21U A26G G71A C125U | ≤ -4.2
A21G C38U A60G C85U | 1
A21U C35A G50C A91G U134G | ≤ -4.2
A21G A73G C85A C103U A122U | -1.86
A21C C32G G84A G117A U135A | ≤ -4.2
A21C G94C C116U | 0.209
A21U G86A | -0.555
A22C A39C | -2.49
A21U A60U C103G C108U A142G U148C | ≤ -4.2

Variant | polymerase ribozyme fitness (log ratio)
A21U C95A U146G | -0.389
A22C A28U A121U | ≤ -4.2
A21U C54U U146A | -0.081
A21U A26U G83A A106G | -3.03
A21G A24G C51U U104G A113U | ≤ -4.2
A21U A28C U53A G88C | ≤ -4.2
A21U C69U C96A C129A U135A G143U | -0.753
A21U G42C U44A U53A U55A C87U | ≤ -4.2
A21U G46U U55A C85G A106G C116A | -1.91
A21U G80U G94A A147U | -0.607
A21U A41U U55G G83A U145A | -2.5
A21U C38G C54U G92A G117U A121G | ≤ -4.2
A21C U53A U56A C69U A98U G117C C118G U134A | ≤ -4.2
A21U U135A | -1.24
A21U G62C A66C G83U A91U G152A | ≤ -4.2
A21U A91G | -2.85
A22C A28U C105U C123U | ≤ -4.2
A22C A28U G58C A91C | ≤ -4.2
A21C U55G C93U G126U | -0.141
A21C U53A A91U C95G U134A U139C G152U | ≤ -4.2
A21U A26C | -1.48
A21G C76A G86U C93G U101C A122G | -0.0234
A21G G68C C85A G92A G128U | ≤ -4.2
A22C A47C C51G A64G C72A C95U A107G A113U U135A | ≤ -4.2

Variant | polymerase ribozyme fitness (log ratio)
A22C A26C A49C U56A G59U G68U C85U G86U G94U A97G U134A | ≤ -4.2
A21U A24U G94U A97G A150C | ≤ -4.2
A21G C27U A52C C93G A110U G152U | ≤ -4.2
A21U C57U C93U C96A C116U | -1.6
A21G G58C | 0.298
A21C A110C | ≤ -4.2
A21G A60G G68U C93G C95G U139C | ≤ -4.2
A21U C85U C131U U145G U151A | ≤ -4.2
A21G A37U | -0.976
A22C A47U C54U G86U C103A | ≤ -4.2
A21C G68C A142G | -4.13
A21G C35A A49G C96G | ≤ -4.2
A21C G34U U61A C87U U134G U135A G141C | ≤ -4.2
A21U C57A A142U | -0.38
A21G C85U C96U C105U A106C A138G | ≤ -4.2
A21U C79G | -3.91
A21U C118U A119G | -3.17
A21C C93A C99U G136U A142U | ≤ -4.2
A21G A52G U102A | -1.09
A21C G68U | ≤ -4.2
A21C U134A | -1.79
A21U G50A C63G A89G C95U C116U | -1.96
A21U C57U C93G | -3.29
A21G A24U C93G | -4.02

Variant | polymerase ribozyme fitness (log ratio)
A21U A113C U127G C132U | ≤ -4.2
A21U G25A A89C | -3.68
A21G C36U A52U C116U A120U U144C | -3.59
A21C A89C C95U A142G | -3.16
A21U A40C | 1.56
A21U A22G A60G C132G U144C | -4.13
A21C G34A C43U A60C A64G A91U | ≤ -4.2
A21G A41U A64U C85G A98U | ≤ -4.2
A21U C43A U78G G84U C93U C103G A115G | ≤ -4.2
A21C U45G C54G G143C | ≤ -4.2
A21G G42U C54A C72U C76U C79U G84U | ≤ -4.2
A21U G84C A121U A122C | -1.35
A21U C38A G81A | 0.0427
A21U U33G C72A C95U A122U | ≤ -4.2
A21C G59A | -0.0146
A21G A30U A60C U77G C85A G94U G117U A150G | ≤ -4.2
A21U A26G U33A A142C G143U U146G C149G | ≤ -4.2
A21U U44A C51U C57U G65A | ≤ -4.2
A21U A24C U56A C96U A138U | ≤ -4.2
A21U U55G G70A C93A | ≤ -4.2
A21U C27A U44G C87A A137U | ≤ -4.2
A21U G59U C105U C129A | -2.46
A21G A138C | -4

Source: the RNAGym collection of RNA variant scans (doi:10.1073/pnas.2313332121)
